assay: yeast display, Sf9 membrane polyspecificity reagent, FACS + sequencing; frameworks hold sequencing errors
In short: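 Sorting gates, low and high (top ~1%), were placed on anti-HA fluorescence to track expression and on streptavidin fluorescence to track reagent binding. A clone's polyreactivity label is taken from the gate it came out of. The reagent was 10% biotinylated, detergent-solubilized Sf9 membrane, applied for 1 hour at 4 °C to galactose-induced yeast display cells.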

| Sequence | polyreactivity (PSR sort gate) |
| --- | --- |
| QVQLVESGGGLVQAGGSLRLSCAASGIIFEYYAMGWYRQAPGKERELVAAISKRGGSTYYADSVKGRFTISRDNAKNTVYLQMNSLKPEDTAVYYCNARRRYYSGPVYLHYRVNYWGQGTQVTVSS | high polyreactivity |
| QVQLVESGGGLVQAGGSLRLSCAASGIIFEYYAMGWYRQAPGKERELVAAITRGGSTYYADSVKGRFTISRDNAKNTVYLQMNSLKAEDTAVYYCAADRYYYEYDYWGQGTQVTVSS | low polyreactivity |
| QVQLVESGGGLVQAGGSLRLSCAASGIIFFANAMGWYRQAPGKERELVASISASGGNTYYADSVKGRFTISRDNAKNTVYLQMNSLKPEDTAVYYCAARARRSQSISLKYYYWGQGTQVTVSS | high polyreactivity |
| QVQLVESGGGLVQAGGSLRLSCAASGIIFFDYAMGWYRQAPGKDRELVAAISSGGGNTYYADSVKGRFTISRDNAKNTVYLQMNSLKPEDSAVYYCAAEPYIYGEQGAYDYWGQGTQVTVSS | low polyreactivity |
| QVQLVESGGGLVQAGGSLRLSCAASGIIFFKNAMGWYRQAPGKERELVAAISSTDTRTYYADSVKGRFTISRDNAKNTVYLQMNSLKPEDTAVYYCAASRRGGGLDYWGQGTQVTVSS | high polyreactivity |
| QVQLVESGGGLVQAGGSLRLSCAASGIIFFNNVMGWYRQAPGKERVLVAGITYTGGSTYYADSVKGRFTISRDNAKNTVYLHMNSLKPEDTAVYNCNKDYANTRRVTEYDYWGQGTQVTVSS | low polyreactivity |
| QVQLVESGGGLVQAGGSLRLSCAASGIIFFRNAMGWYRQAPGKERELVAAIRWSGGSSYYADSVKGRYTISRDNAKNTVYLQINSLKPEDTAVYYCNAVTVYKHGSWGQGTQVTVSS | high polyreactivity |
| QVQLVESGGGLVQAGGSLRLSCAASGIIFFSNAMGWYRQAPGKERELVAAITGGSSTNYADSVKGRFTISRDNAKNTVYLQMNSLKPEENAVYYCNAPTKSTPRSEPIPYYEFDYWGQGTQVTVSS | low polyreactivity |
| QVQLVESGGGLVQAGGSLRLSCAASGIIFFWNAMGWYRQAPGKERELVAAISEDGGGTYYADSVKGRFTISRDNAKNTVYLQMNSLKPEDTAVYYCNTDTSPQIVTRRSFDDYWGQGTQVTVSS | low polyreactivity |
| QVQLVESGGGLVQAGGSLRLSCAASGIIFFWNAMGWYRQAPGKERELVAAISEDGGGTYYADSVKGRFTISRDNAKNTVYLQMNSMKPEDTAVYYCNTDTSPQIVTRGSFDDYWGQGTQATVSS | low polyreactivity |
| QVQLVESGGGLVQAGGSLRLSCAASGIIFGDNAMGWYRQAPGKERELVAAIDSGGSTYYADSVKGRFTISRDNAKTTVYCPMNSLKPEDTAVYYCNAVTAFGYSYGGWDYDQYNYWGQGTQVTVSS | low polyreactivity |
| QVQLVESGGGLVQAGGSLRLSCAASGIIFGDNAMGWYRQAPGKERELVAAISSSGTSTNYADSVKGRFTISRDNAKNTVYLQMNSLKPEDSAVYYCAKDVLPPYPQSPSGGDYWGQGTQVTVSS | low polyreactivity |
| QVQLVESGGGLVQAGGSLRLSCAASGIIFGDNAMGWYRQAPVTERELVAAIDSGGSTYYADSVKGRFTISRDNAKNTVYLQMISLKPEDTAVYYCNAVTAFGYSYAGWDYDQYNYWGQGTEVTVSS | low polyreactivity |
| QVQLVESGGGLVQAGGSLRLSCAASGIIFGGNAMGWYRQAPGKERELVATISNGGSTKYADSVKGRFTISRDNAKNTVYLQMNSLKPEYTAVYYCAAQPRVGSYVRSSRGRYNHWGQGTQVTVSS | high polyreactivity |
| QVQLVESGGGLVQAGGSLRLSCAASGIIFGGYAMGWYRQAPGKERELVADISGISSNTYYADSVKGRFTISRDNAKNTVYLQMNSLKPEDTAVYYCAADLTAWWAPVIFYYWGQGTQVTVSS | high polyreactivity |
| QVQLVESGGGLVQAGGSLRLSCAASGIIFGGYAMGWYRQAPGKERELVASITYDGGSTSYEDSVKGRFTISRDNAKNTVYLQMNSLKPEDTAVYYCNAELFSVNGYDYWGQGTQVTVSS | low polyreactivity |

| Sequence | polyreactivity (PSR sort gate) |
| --- | --- |
| QVQLVESGGGLVQAGGSLRLSCAASGIIFGGYDMGWYRQAPGKERELVAAISWSGGSTYYADSVKGRFTISRDNAKNTVYLQMNSLKPEDTAVYYCAAAYYAPSRDYYYWGQGTQVTVSS | low polyreactivity |
| QVQLVESGGGLVQAGGSLRLSCAASGIIFGINAMGWYRQAPGKERELVATITSGGGTNYADSVKGRFTISRDNAKNTVYLQMNSLKPEDTAVYYCAKPTYRFYWGDFDYWGQGTQVTVSS | low polyreactivity |
| QVQLVESGGGLVQAGGSLRLSCAASGIIFGKYAMGWYRQAPGKERELVAAINYSGSTYYADSVKGRFTISRDNAKNTVYLQMNSLKPEDTAVYYCAAVLGLDTRYDYWGQGTQVTVSS | high polyreactivity |
| QVQLVESGGGLVQAGGSLRLSCAASGIIFGRNVMGWYRQAPGKERELVAAISWSGGSTYYADSVKGRFTISRDNAKNTVYLQMNSLKPEDTAVYYCAASYWWIPMEYWGQGTQVTVSS | high polyreactivity |
| QVQLVESGGGLVQAGGSLRLSCAASGIIFGRYAMGWYRQSPGKERELVAAISSRGGSTYYADSVKGRFTISRDNAKNTVYLQMNSLKPEDTAVYYCAATWCFLRGSTKYYYWGQGTQVTVSS | high polyreactivity |
| QVQLVESGGGLVQAGGSLRLSCAASGIIFGRYPMGWYRQAPGKERELVAAITSSGITYYADSVKGRFTISRDNAKNTVYLQMNSLKPEDTAVYYCNADYSIPGYYWPYDYWGQGTQVTVSS | low polyreactivity |
| QVQLVESGGGLVQAGGSLRLSCAASGIIFGSYAMGWYRQAPGKERELVAAISRGTSTYYAVSVKGRFTISRDNAKNTVYLQMNSLKPEDSAVYYCAATRQQYGPHSRFVYVNYYYCGQGTQVTVSS | low polyreactivity |
| QVQLVESGGGLVQAGGSLRLSCAASGIIFGTNAMGWYRQAPGKERELVAYITSGGSTYADSVKGRFTISRDNAKNTFYLQMHSLKPEDTEVYYCAAYVFWAFYEYDYWGQGTQVTVSS | low polyreactivity |
| QVQLVESGGGLVQAGGSLRLSCAASGIIFGTYAMGWYRQAPGKERELVAAITRSGGSTYYADSVMGRFTISRDNAKNTVYLQMNSLKPEDTAVYYCAASSTWYGYYIYVFRAYDYWGQGTQGTVSS | low polyreactivity |
| QVQLVESGGGLVQAGGSLRLSCAASGIIFGTYAMGWYRQAPGKERELVASISSRGGSTYYADTVKGRFTISRDNAKNTVYLQMNSLKPEDTAVYYCAARNAYPGNSMDSWGLGTQVTVSS | high polyreactivity |
| QVQLVESGGGLVQAGGSLRLSCAASGIIFGVNVMGWYRQAPGKERELVATITWRGDSTYYADSVKGRFTISRDNAKNTVYLQMNSLKPEDTAVYYCAVLRSWWYRYDYWGQGTQVTVSS | low polyreactivity |
| QVQLVESGGGLVQAGGSLRLSCAASGIIFGWYAMGWYRQAPGKERELVAAISYSGGSTYYADSVKGRFTISRDNAKNTVYLQMNSLKPEDTAVYYCAVQRYWGQGTQVTVSS | high polyreactivity |
| QVQLVESGGGLVQAGGSLRLSCAASGIIFGWYAMGWYRQAPGKERELVAAITWSGASTYYADSVKGRFTISRDNAKNTVYLQMNSLKPEDTAVYYCAAESVDNIYYGFDYWGQGTQVTVSS | high polyreactivity |
| QVQLVESGGGLVQAGGSLRLSCAASGIIFGYSAMGWYRQAPGKERELVAAITRSGSSTYYADSVKGRFTISRDNAKNTVYLQMNSLKPEDTAVYYCAADNFYQSYGYWGQGTQVTVSS | low polyreactivity |
| QVQLVESGGGLVQAGGSLRLSCAASGIIFGYYAMGWYRQAPGKVRELVAAISWSGGSTYYADSVKGRFTFSRDNAKNTVYLQMNSLKPEDTAVYYCNAVYVSYTYQQTRSGGYDYWGQGTQVTVSS | high polyreactivity |

— the nanobody polyreactivity screen of Harvey et al. (2022)
